Reference: patent US20260132208A1 (DOMAIN THERAPEUTICS, published 2026)
Where “and” joins values, the source holds several entries; their conditions need not be identical. Equal values may be shown once.

Assays:
human CCR8 [1] = target: T1, human CCR8 (human, UniProt P51685 1-355); assay: cell-based or functional assay
human CCR8 [2] = target: T1, human CCR8; assay: cell-based or functional assay; remark: listed apart in the source
human CCR8 [3] = target: T1, human CCR8; assay: cell-based or functional assay; remark: listed apart in the source
human CCR8 [4] = target: T1, human CCR8; assay: cell-based or functional assay; remark: listed apart in the source
pwt1 = target: T2, pwt1 (none (unmodified peptide)); assay: ELISA on coated peptide [cont.]
T2 construct: also called unmodified CCR8 N-terminal peptide
T2 sequence (peptide, as listed by the source): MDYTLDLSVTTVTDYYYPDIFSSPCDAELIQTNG
Outline: (§1)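 Steps: peptide coating (500 ng/ml, carbonate/bicarbonate); anti-CCR8 mAb added at 1 μg/mL and diluted 1/10; room-temperature incubation of 90 min; washes to remove unbound antibody; 15 min TMB; OD measurement.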

pm1 = target: T3, pm1 (sulfated tyrosine(s) among Y15, Y16, Y17; which ones is not told (the underlining of Table 1 is lost in the text)); assay: ELISA on coated peptide [cont.]
T3 construct: also called sulfated CCR8 N-terminal peptide pm1
T3 sequence (peptide, as listed by the source): as above
Outline: as §1

pm2 = target: T4, pm2 (sulfated tyrosine(s) among Y15, Y16, Y17; which ones is not told (the underlining of Table 1 is lost in the text)); assay: ELISA on coated peptide [cont.]
T4 construct: also called sulfated CCR8 N-terminal peptide pm2
T4 sequence (peptide, as listed by the source): as above
Outline: as §1

pm3 = target: T5, pm3 (Y17 sulfated; Y15 and Y16 not sulfated); assay: ELISA on coated peptide [cont.]
T5 construct: also called sulfated CCR8 N-terminal peptide pm3
T5 sequence (peptide, as listed by the source): as above
Outline: as §1

pm4 = target: T6, pm4 (sulfated tyrosine(s) among Y15, Y16, Y17; which ones is not told (the underlining of Table 1 is lost in the text)); assay: ELISA on coated peptide [cont.]
T6 construct: also called sulfated CCR8 N-terminal peptide pm4
T6 sequence (peptide, as listed by the source): as above
Outline: as §1

pm5 = target: T7, pm5 (Y15 and Y17 sulfated; Y16 not sulfated); assay: ELISA on coated peptide [cont.]
T7 construct: also called sulfated CCR8 N-terminal peptide pm5
T7 sequence (peptide, as listed by the source): as above
Outline: as §1

pm6 = target: T8, pm6 (Y16 and Y17 sulfated; Y15 not sulfated); assay: ELISA on coated peptide [cont.]
T8 construct: also called sulfated CCR8 N-terminal peptide pm6
T8 sequence (peptide, as listed by the source): as above
Outline: as §1

pm8 = target: T9, pm8 (Y15, Y16 and Y17 sulfated); assay: ELISA on coated peptide [cont.]
T9 construct: also called sulfated CCR8 N-terminal peptide pm8
T9 sequence (peptide, as listed by the source): as above
Outline: as §1

human CCR8 [5] = target: T1, human CCR8; assay: flow cytometry, hCCR8-transfected CHO-K1 cells
Outline: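 Antibody incubation ran 30 min at 4° C, followed by fluorescent anti-mouse or anti-human IgG secondary for 30 min at 4° C. Isotype-matched mAbs served as nonspecific-binding controls.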

human CCR8 [6] = target: T1, human CCR8; assay: flow cytometry, inhibition of hCCL1-AF647 (10 nM) binding to hCCR8-CHO cells
Outline: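 hCCR8-transfected CHO cells preincubated 30 min at 4 °C with anti-CCR8 mAb (8 concentrations, top 10 μg/mL, 1/3 dilutions), washed, then exposed to labelled CCL1. Bound CCL1 quantified by flow cytometry; IC₅₀ of binding blockade from sigmoidal variable-slope fit.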

B1: anti-CCR8 mAb 1-6 (antibody, V domains shown)
VH: EVQLQQSGPELLKPGTSVKISCTTSGYTFSDYTLHWVKQSHGKSLEWIGGITPKNGDTRYDPRFKDKATLTIDKSSSAAYMELRSLTSEDSAVYYCARVARFYGVSPYAMDYWGQGASVTVSS
VL: DVVMTQTPLSLPVSLGDQASISCRCTQSLLHSNGDTYLHWYLQKPGQSPKLLIYKVSNRFSGVPDRFSGSGSGTDFTLEITRVEAEDLGVYFCSQTTHVPYTFGGGTKLEIK
notes: Murine hybridoma mAb
IC50 of CCL1-induced hCCR8 Gi2 signaling (BRET, HEK-293) (human CCR8 [1]): 0.049 µg/mL and 0.328 nM | residual hCCL1 (100 nM) Gi2 response, protocol #2, mAb 0.08 µg/mL (human CCR8 [2]): 79% | residual hCCL1 (100 nM) Gi2 response, protocol #2, mAb 0.4 µg/mL (human CCR8 [2]): 38% | residual hCCL1 (100 nM) Gi2 response, protocol #2, mAb 10 µg/mL (human CCR8 [2]): 17% | residual hCCL1 (100 nM) Gi2 response, protocol #3, mAb 0.05 µg/mL (human CCR8 [2]): 102% | residual hCCL1 (100 nM) Gi2 response, protocol #3, mAb 0.5 µg/mL (human CCR8 [2]): 64% | residual hCCL1 (100 nM) Gi2 response, protocol #3, mAb 5 µg/mL (human CCR8 [2]): 47% | extrapolated top plateau of hCCL1 curve with 5 µg/mL mAb, protocol #3 (human CCR8 [3]): 667000 % of hCCL1 (100 nM) | IC50 of CCL1-induced hCCR8 Gi2 signaling (BRET), pH 6.5 (human CCR8 [4]): 0.044 µg/ml and 0.292 nM | IC50 of CCL1-induced hCCR8 Gi2 signaling (BRET), pH 7.4 (human CCR8 [4]): 0.061 µg/ml and 0.405 nM | binding result (pwt1): binds | binding result (pm1): binds | binding result (pm2): binds | binding result (pm3): binds | binding result (pm4): binds | binding result (pm5): binds | binding result (pm6): binds | binding result (pm8): binds | % positive cells (human CCR8 [5]): 81.1% | MFI fold change to isotype ctrl (human CCR8 [5]): 10.7 fold | IC50 (human CCR8 [6]): 1.3 µg/mL and 8.71 nM
